Biological target: T1, GST-PCAF (aa 352–832) (human, UniProt Q92831 352-832)
T1 construct: PCAF (KAT2B), residues 352-832, fused to GST; Written GST-PCAF; source: bacterially expressed and purified
Assay: pull-down; purified VRK1-His and GST-PCAF (aa 352–832) incubated in 20 mM Tris–HCl pH 7.5, 5 mM MgCl2, 0.5 mM DTT, 150 mM KCl at 37 °C for 45 min; Glutathione Sepharose 4B overnight at 4 °C; SDS-PAGE, Coomassie staining; dose-dependent
Details: both partners purified

T1 sequence (Q92831 352-832): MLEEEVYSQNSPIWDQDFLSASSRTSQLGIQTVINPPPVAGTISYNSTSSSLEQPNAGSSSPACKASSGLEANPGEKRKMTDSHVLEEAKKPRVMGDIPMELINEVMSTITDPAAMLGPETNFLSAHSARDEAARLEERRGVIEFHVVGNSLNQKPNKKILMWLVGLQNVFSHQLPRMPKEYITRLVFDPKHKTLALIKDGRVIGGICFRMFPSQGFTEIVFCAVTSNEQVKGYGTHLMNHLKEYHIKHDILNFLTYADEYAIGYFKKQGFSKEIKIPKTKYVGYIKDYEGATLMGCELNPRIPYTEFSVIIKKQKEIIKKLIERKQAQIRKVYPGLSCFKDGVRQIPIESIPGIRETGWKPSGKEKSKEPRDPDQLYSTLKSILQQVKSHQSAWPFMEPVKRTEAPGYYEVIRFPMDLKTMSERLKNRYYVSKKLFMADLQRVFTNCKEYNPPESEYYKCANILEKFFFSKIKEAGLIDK

binding result: binds
B1: VRK1-His (enzyme, human, UniProt Q99986 1-396, looked up)
chain: MPRVKAAQAGRQSSAKRHLAEQFAVGEIITDMAKKEWKVGLPIGQGGFGCIYLADMNSSESVGSDAPCVVKVEPSDNGPLFTELKFYQRAAKPEQIQKWIRTRKLKYLGVPKYWGSGLHDKNGKSYRFMIMDRFGSDLQKIYEANAKRFSRKTVLQLSLRILDILEYIHEHEYVHGDIKASNLLLNYKNPDQVYLVDYGLAYRYCPEGVHKEYKEDPKRCHDGTIEFTSIDAHNGVAPSRRGDLEILGYCMIQWLTGHLPWEDNLKDPKYVRDSKIRYRENIASLMDKCFPEKNKPGEIAKYMETVKLLDYTEKPLYENLRDILLQGLKAIGSKDDGKLDLSVVENGGLKAKTITKKRKKEIEESKEPGVEDTEWSNTQTEEAIQTRSRTRKRVQK
notes: VRK1 with a His tag, bacterially expressed and purified; Printed both as His-VRK1 (results) and VRK1-His (methods); the end of the tag cannot be told; also called His-VRK1; source: bacterially expressed and purified
